Results published in publication PMC10164398.

Target: fluorescein-labeled NS1 (89–237) (H3N2) (influenza A virus H3N2)
Test: […]

Chain of fluorescein-labeled NS1 (89–237) (H3N2) (influenza A virus H3N2) (P03495 89-237 limits assumed): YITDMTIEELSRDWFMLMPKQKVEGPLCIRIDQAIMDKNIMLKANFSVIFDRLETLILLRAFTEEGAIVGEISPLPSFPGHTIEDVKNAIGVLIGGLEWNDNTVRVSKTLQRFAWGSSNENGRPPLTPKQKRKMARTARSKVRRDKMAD
Chain of human eIF4E (P06730 whole entry): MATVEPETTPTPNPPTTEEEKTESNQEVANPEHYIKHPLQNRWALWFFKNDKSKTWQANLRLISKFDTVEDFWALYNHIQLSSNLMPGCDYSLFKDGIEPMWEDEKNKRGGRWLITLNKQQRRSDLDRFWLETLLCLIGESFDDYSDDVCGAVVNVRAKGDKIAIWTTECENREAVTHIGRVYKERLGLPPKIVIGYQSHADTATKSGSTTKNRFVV

Substance	Kd
eIF4G1 (88–653) (from UniProt Q04637 88-653) (domain or fragment)	264 nM
human eIF4E (from UniProt P06730 1-217) (natural protein)	177 nM
